{
  "source": "paper PMC9331743",
  "about": "“Portable Vertical Graphene@Au-Based Electrochemical Aptasensing Platform for Point-of-Care Testing of Tau Protein in the Blood”",
  "target": "Tau441 (tau protein) (UniProt P10636-8 1-441)",
  "sequence (P10636 other isoform, or with tags, fused parts or gaps)": "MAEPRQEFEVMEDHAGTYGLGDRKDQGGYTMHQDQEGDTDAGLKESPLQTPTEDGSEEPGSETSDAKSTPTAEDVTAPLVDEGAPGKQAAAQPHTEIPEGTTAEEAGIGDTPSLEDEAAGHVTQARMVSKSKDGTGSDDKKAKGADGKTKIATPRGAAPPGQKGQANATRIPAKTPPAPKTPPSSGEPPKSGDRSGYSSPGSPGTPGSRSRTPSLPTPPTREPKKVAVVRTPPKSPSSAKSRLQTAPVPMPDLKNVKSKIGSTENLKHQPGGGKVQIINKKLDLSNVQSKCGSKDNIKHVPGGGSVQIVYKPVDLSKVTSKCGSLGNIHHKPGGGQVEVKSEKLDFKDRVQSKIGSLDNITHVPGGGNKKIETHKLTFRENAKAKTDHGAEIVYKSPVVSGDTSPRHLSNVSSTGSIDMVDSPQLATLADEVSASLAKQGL",
  "experiment": "electrochemical aptasensor (DPV); aptamer on VG@Au electrode, MCH blocked; LOD 0.034 pg/mL, linear 0.1 pg/mL-1 ng/mL (not a Kd); Tau in PBS (10 mM, pH 7.4), 1 h at 37 C on electrode; DPV read in 5 mM Fe(CN)6 3-/4- with 0.1 M KCl",
  "settings": "protein: commercial",
  "data": [
    {"binder": "tau DNA aptamer (ssDNA, 5' SH-(CH2)6 thiol linker) DNA: CAGCACCGTCAACTGAATGGGTTGGCCGGGCAGCGGGGGGTAGGCTGGTGATGCGATGGAGATGT", "values": [
      {"measurement": "binding result", "value": "binds"}
    ]}
  ]
}
